Assay results taken from article doi:10.1101/636423 (bioRxiv, 2019).

Target: the molecule itself
Assay: native MS

B1: whole intracellular region of rat PTPRZ (rat PTPRZ-ICR) (domain or fragment)
chain: not shown
B1 was tested, and the Kd was ~7 µM and the “stoichiometry N” value was 2.
